pKd: −log10 of the molar value.
Target: His-Nudel^1–201 (UniProt Q9GZM8)
Assay: ITC

Chain of UniProt Q9GZM8 (Q9GZM8 1-201): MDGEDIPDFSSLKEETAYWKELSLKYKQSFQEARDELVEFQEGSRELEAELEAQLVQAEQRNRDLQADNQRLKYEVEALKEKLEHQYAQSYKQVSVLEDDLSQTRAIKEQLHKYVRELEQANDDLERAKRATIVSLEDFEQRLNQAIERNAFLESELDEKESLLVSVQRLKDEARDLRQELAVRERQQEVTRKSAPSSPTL

| pKd | Substance |
| --- | --- |
| 6.39 | His-tagged Lis1 (from UniProt P43034 1-410) (natural protein) |
| 5.11 | His-DIC (natural protein) |

— PMC3826990
